Results as given in US9314499.

Target: T1, Histidine-tagged recombinant human Annexin A2
T1 chain: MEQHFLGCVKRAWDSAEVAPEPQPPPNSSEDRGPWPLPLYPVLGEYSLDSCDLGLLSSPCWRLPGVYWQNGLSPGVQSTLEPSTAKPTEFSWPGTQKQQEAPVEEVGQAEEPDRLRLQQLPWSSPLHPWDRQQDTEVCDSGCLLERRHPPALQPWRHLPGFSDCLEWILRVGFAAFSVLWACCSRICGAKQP

B1: tissue plasminogen activator (protein)
chain: SYQVICRDEKTQMIYQQHQSWLRPVLRSNRVEYCWCNSGRAQCHSVPVKSCSEPRCFNGGTCQQALYFSDFVCQCPEGFAGKCCEIDTRATCYEDQGISYRGTWSTAESGAECTNWNSSALAQKPYSGRRPDAIRLGLGNHNYCRNPDRDSKPWCYVFKAGKYSSEFCSTPACSEGNSDCYFGNGSAYRGTHSLTESGASCLPWNSMILIGKVYTAQNPSAQALGLGKHNYCRNPDGDAKPWCHVLKNRRLTWEYCDVPSCSTCGLRQYSQPQFRIKGGLFADIASHPWQAAIFAKHRRSPGERFLCGGILISSCWILSAAHCFQERFPPHHLTVILGRTYRVVPGEEEQKFEVEKYIVHKEFDDDTYDNDIALLQLKSDSSRCAQESSVVRTVCLPPADLQLPDWTECELSGYGKHEALSPFYSERLKEAHVRLYPSSRCTSQHLLNRTVTDNMLCAGDTRSGGPQANLHDACQGDSGGPLVCLNDGRMTLVGIISWGLGCGQKDVPGVYTKVTNYLDWIRDNMRP
tPA-converted plasmin generation (in vitro plasmin activity assay, fluorogenic substrate D-Val-Leu-Lys-AMC): a combination of rA2 (5 µg/ml) and tPA (2.5 µg/ml) significantly amplified tPA-converted plasmin generation
